Consider one molecule from US8927230B2, “C-terminal modification of polypeptides” (EUCODIS Bioscience GmbH, priority 2004, dated 2015).

In this data set the target is T1, N^α-benzoylated peptides of SEQ ID NOs: 2-18 (Rattus norvegicus, UniProt P00763, D194K/E154H/K66E/N146H).
T1 construct: made in house; host or cells: E. coli or yeast (general procedure; the host actually used is not fixed)
T1 sequence (P00763 24-246 K66E/N146H/E154H/D194K): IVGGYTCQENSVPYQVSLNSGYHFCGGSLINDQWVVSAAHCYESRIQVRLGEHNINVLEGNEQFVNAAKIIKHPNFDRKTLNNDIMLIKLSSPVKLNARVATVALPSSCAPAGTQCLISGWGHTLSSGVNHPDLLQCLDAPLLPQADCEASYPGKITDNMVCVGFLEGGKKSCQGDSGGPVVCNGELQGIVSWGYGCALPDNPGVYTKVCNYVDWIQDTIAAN
Put plainly: Influence of the recognition sequence on the rate of reaction catalyzed by the trypsin variant (HPLC, peptide consumption). In kind it is biochemical. The following applies: 1 mM peptide, 20 μM trypsin variant, 100 μM ZnCl2, 0.1 M Pipes/Tris-buffer pH 8.0, 30° C. From the text: Variant trypsin according to the present invention has been tested for catalytic activity upon peptide substrates with different peptide sequences at or close to the cleavage site. The initial rate (v) of peptide consumption is given in nM/min
The N^α-benzoylated peptides of SEQ ID NOs: 2-18 have been synthesized by conventional solid-phase peptide synthesis using Fmoc-chemistry and a preloaded Wang-resin. The respective amino acid building blocks are commercially available and were purchased from various suppliers.
1 ml reaction volume containing 1 mM N^α-benzoylated peptide dissolved in 0.1 M Pipes/Tris-buffer pH 8.0; 20 μM trypsin variant Tn K60E, E151H, N143H, D189K; 100 μM ZnCl2 was stirred at 30° C. After defined time intervals, the reactions were terminated by adding of 1% trifluoroacetic acid in methanol/water (1:1, v/v). The quenched reaction mixtures were analyzed by analytical HPLC. The identity of the final products was verified by mass spectroscopy.

B1: Tn K60E, E151H, N143H, D189K: mutated anionic rat trypsin II, without signal sequence and pro-sequence (SEQ ID NO: 1), with K60E, N143H, E151H, D189K (protein)
chain: IVGGYTCQENSVPYQVSLNSGYHFCGGSLINDQWVVSAAHCYESRIQVRLGEHNINVLEGNEQFVNAAKIIKHPNFDRKTLNNDIMLIKLSSPVKLNARVATVALPSSCAPAGTQCLISGWGHTLSSGVNHPDLLQCLDAPLLPQADCEASYPGKITDNMVCVGFLEGGKKSCQGDSGGPVVCNGELQGIVSWGYGCALPDNPGVYTKVCNYVDWIQDTIAAN
With B1, the “cleavage site preference (substrate specificity from initial rates of peptide consumption, FIG. 4)” value is “strong preference for a cleavage site comprising L, F or Y in position P1, R or K in position P1′ and His in position P2′”.
